Source: patent publication US20220380471A1
Residue numbers refer to the chain shown, from its start. Values belong to the binder of their own block, whether it stands above or below them.

Experiments:
mouse B7H3-His (mouse) [1] = biological target: T1, mouse B7H3-His (mouse) (UniProt Q8VE98); assay: phage ELISA, cross-species
T1 sequence (looked up): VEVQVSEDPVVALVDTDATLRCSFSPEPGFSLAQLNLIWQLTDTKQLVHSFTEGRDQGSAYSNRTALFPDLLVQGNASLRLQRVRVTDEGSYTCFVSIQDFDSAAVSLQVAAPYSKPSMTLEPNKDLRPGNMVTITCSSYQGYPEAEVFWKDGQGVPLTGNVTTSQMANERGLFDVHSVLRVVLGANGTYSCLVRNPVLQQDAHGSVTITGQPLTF

mouse B7H3-His (mouse) [2] = biological target: T1, mouse B7H3-His (mouse); assay: ELISA; row Mouse-2 (mB7H3); well 3 of 3
mouse B7H3-His (mouse) [3] = biological target: T1, mouse B7H3-His (mouse); assay: ELISA; row Mouse-1 (msB7H3); well 1 of 3
mouse B7H3-His (mouse) [4] = biological target: T1, mouse B7H3-His (mouse); assay: ELISA; row Mouse-1 (msB7H3); well 3 of 3
mouse B7H3-His (mouse) [5] = biological target: T1, mouse B7H3-His (mouse); assay: ELISA; row Mouse-2 (mB7H3); well 1 of 3
mouse B7H3-His (mouse) [6] = biological target: T1, mouse B7H3-His (mouse); assay: ELISA; row Mouse-2 (mB7H3); well 2 of 3
mouse B7H3-His (mouse) [7] = biological target: T1, mouse B7H3-His (mouse); assay: ELISA; row Mouse-1 (msB7H3); well 2 of 3
rat B7H3-His (rat) [8] = biological target: T2, rat B7H3-His (rat) (UniProt Q7TPB4); assay: ELISA, purified VHH
T2 sequence (looked up): T1 sequence (looked up) with A33R, S62A, N131D, V156L, L214M

rat B7H3-His (rat) [9] = biological target: T2, rat B7H3-His (rat); assay: ELISA; row Rat; well 2 of 3
rat B7H3-His (rat) [10] = biological target: T2, rat B7H3-His (rat); assay: ELISA; row Rat; well 1 of 3
rat B7H3-His (rat) [11] = biological target: T2, rat B7H3-His (rat); assay: phage ELISA, cross-species
rat B7H3-His (rat) [12] = biological target: T2, rat B7H3-His (rat); assay: ELISA; row Rat; well 3 of 3

ELISA signal (mouse B7H3-His (mouse) [1]): 1.71 | ELISA reading (name not given) (mouse B7H3-His (mouse) [2]): 0.0764 | ELISA reading (name not given) (mouse B7H3-His (mouse) [3]): 0.0714 | ELISA reading (name not given) (mouse B7H3-His (mouse) [4]): 0.0702 | ELISA reading (name not given) (mouse B7H3-His (mouse) [5]): 0.0742 | ELISA reading (name not given) (mouse B7H3-His (mouse) [6]): 0.0771 | ELISA reading (name not given) (mouse B7H3-His (mouse) [7]): 0.0683
B1: RWB12 (VHH)
VHH: QVQLVESGGGSVQVGGSLRLSCAASGFTYNSYSVGWFRQAPGKEREGVAAINSGGSSTYYAASVKGRFTISRDNAKNTVYLQMNSLKPEDTAMYYCAARSPSPLTFQTRTLREDSYNYWGQGTQVTVSS

ELISA signal (rat B7H3-His (rat) [8]): 0.158 | ELISA reading (name not given) (rat B7H3-His (rat) [9]): 0.0688 | ELISA reading (name not given) (rat B7H3-His (rat) [10]): 0.0683 | ELISA signal (mouse B7H3-His (mouse) [1]): 0.366 | ELISA signal (rat B7H3-His (rat) [11]): 0.797 | ELISA reading (name not given) (rat B7H3-His (rat) [12]): 0.0685 | ELISA reading (name not given) (mouse B7H3-His (mouse) [2]): 0.0468 | ELISA reading (name not given) (mouse B7H3-His (mouse) [3]): 0.0616 | ELISA reading (name not given) (mouse B7H3-His (mouse) [4]): 0.0488 | ELISA reading (name not given) (mouse B7H3-His (mouse) [5]): 0.079 | ELISA reading (name not given) (mouse B7H3-His (mouse) [6]): 0.0498 | ELISA reading (name not given) (mouse B7H3-His (mouse) [7]): 0.0533
B2: RWC4 (VHH)
VHH: EVQLVESGGGSVQAGGSLRLSCVASEDSTSAMCMGWFRQAPGKEREGVACINPTGEVTWYGDSVKGRFTISRDTVKKIVYLQMNSLKPEDTAMYYCAARVTYGGDWSTDTDYEYWGQGTQVTVSS
